Results on six molecules are retold here after article PMC10249356 (Biochemistry, 2023).

A word on the Km: it is the concentration of substrate that gives half-maximal velocity. The term kcat denotes the maximal rate divided by the concentration of active sites. What is called stoichiometry N is a count of units in the complex or per binding partner.

The subject of series [1] is CC(C)(COP(=O)(O)OP(=O)(O)OC[C@H]1O[C@@H](n2cnc3c(N)ncnc32)[C@H](O)[C@@H]1OP(=O)(O)O)[C@@H](O)C(=O)NCCC(=O)NCCSC(=O)CCCO. As to the kind of experiment: purified protein. The note with it: 200 mM HEPES pH 7.5, 400 µM NADPH, 400 nM enzyme, 30 °C, apparent KM.
For series [2], the system named is T1, C/C(=C\C(=O)O)C(=O)SCCNC(=O)CCNC(=O)[C@H](O)C(C)(C)COP(=O)(O)OP(=O)(O)OC[C@H]1O[C@@H](n2cnc3c(N)ncnc32)[C@H](O)[C@@H]1OP(=O)(O)O.
T1 construct: His-tagged, expressed in E. coli BL21(DE3), HisTrap purified (gel filtration for crystals); homodimer
Briefly: purified protein. The format is biochemical, Clostridium kluyveri. To be noted: 200 mM HEPES pH 7.5, 400 µM NADPH, 400 nM enzyme, 30 °C, apparent KM.

Series [3] relates to T2, CC(C)(COP(=O)(O)OP(=O)(O)OC[C@H]1O[C@@H](n2cnc3c(N)ncnc32)[C@H](O)[C@@H]1OP(=O)(O)O)[C@@H](O)C(=O)NCCC(=O)NCCSC(=O)CCC(=O)O.
T2 construct: His-tagged, expressed in E. coli BL21(DE3), HisTrap purified (gel filtration for crystals); homodimer
As to the kind of experiment: purified protein. To be noted: 200 mM HEPES pH 7.5, 400 µM NADPH, 400 nM enzyme, 30 °C, apparent KM. The format is biochemical, Clostridium kluyveri.

The target in series [4] is T3, CkSucD (Clostridium kluyveri, UniProt P38947).
T3 construct: gene sucD; His-tagged, expressed in E. coli BL21(DE3), HisTrap purified (gel filtration for crystals); homodimer
T3 sequence (P38947 1-453): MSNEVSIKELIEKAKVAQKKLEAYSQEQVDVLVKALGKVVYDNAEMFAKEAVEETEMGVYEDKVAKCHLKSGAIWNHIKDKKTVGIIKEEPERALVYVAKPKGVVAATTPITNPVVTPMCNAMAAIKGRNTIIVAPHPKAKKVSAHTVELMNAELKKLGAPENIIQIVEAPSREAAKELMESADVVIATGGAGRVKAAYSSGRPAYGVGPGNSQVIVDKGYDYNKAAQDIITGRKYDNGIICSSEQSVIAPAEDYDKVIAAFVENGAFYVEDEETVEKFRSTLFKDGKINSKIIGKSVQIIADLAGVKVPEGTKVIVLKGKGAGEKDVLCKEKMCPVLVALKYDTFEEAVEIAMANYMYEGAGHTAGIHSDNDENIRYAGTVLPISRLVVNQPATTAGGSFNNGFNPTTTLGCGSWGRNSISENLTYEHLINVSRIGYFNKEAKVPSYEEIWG
As to the kind of experiment: X-ray crystal structure, […] Å. In kind it is binding.

Substrate in series [5]: C/C(=C\C(=O)O)C(=O)SCCNC(=O)CCNC(=O)[C@H](O)C(C)(C)COP(=O)(O)OP(=O)(O)OC[C@H]1O[C@@H](n2cnc3c(N)ncnc32)[C@H](O)[C@@H]1OP(=O)(O)O
As to the kind of experiment: purified protein. In kind it is biochemical, Clostridioides difficile. To be noted: 200 mM HEPES pH 7.5, 400 µM NADPH, 30 °C, apparent KM.

Substrate in series [6]: CC(C)(COP(=O)(O)OP(=O)(O)OC[C@H]1O[C@@H](n2cnc3c(N)ncnc32)[C@H](O)[C@@H]1OP(=O)(O)O)[C@@H](O)C(=O)NCCC(=O)NCCSC(=O)CCC(=O)O
Briefly: purified protein. The note with it: 200 mM HEPES pH 7.5, 400 µM NADPH, 30 °C, apparent KM. In kind it is biochemical, Clostridioides difficile.

Substrate in series [7]: C/C(=C\C(=O)O)C(=O)SCCNC(=O)CCNC(=O)[C@H](O)C(C)(C)COP(=O)(O)OP(=O)(O)OC[C@H]1O[C@@H](n2cnc3c(N)ncnc32)[C@H](O)[C@@H]1OP(=O)(O)O
Briefly: purified protein. The note with it: 200 mM HEPES pH 7.5, 400 µM NADPH, 400 nM enzyme, 30 °C, apparent KM.

Substrate in series [8]: C/C(=C\C(=O)SCCNC(=O)CCNC(=O)[C@H](O)C(C)(C)COP(=O)(O)OP(=O)(O)OC[C@H]1O[C@@H](n2cnc3c(N)ncnc32)[C@H](O)[C@@H]1OP(=O)(O)O)C(=O)O
Briefly: purified protein. To be noted: 200 mM HEPES pH 7.5, 400 µM NADPH, 400 nM enzyme, 30 °C, apparent KM.

Substrate in series [9]: C/C=C/C(=O)SCCNC(=O)CCNC(=O)[C@H](O)C(C)(C)COP(=O)(O)OP(=O)(O)OC[C@H]1O[C@@H](n2cnc3c(N)ncnc32)[C@H](O)[C@@H]1OP(=O)(O)O
As to the kind of experiment: purified protein. To be noted: 200 mM HEPES pH 7.5, 400 µM NADPH, 400 nM enzyme, 30 °C, apparent KM.

Substrate in series [10]: CC(C)(COP(=O)(O)OP(=O)(O)OC[C@H]1O[C@@H](n2cnc3c(N)ncnc32)[C@H](O)[C@@H]1OP(=O)(O)O)[C@@H](O)C(=O)NCCC(=O)NCCSC(=O)CCC(=O)O
Briefly: purified protein. To be noted: 200 mM HEPES pH 7.5, 400 µM NADPH, 400 nM enzyme, 30 °C, apparent KM.

Substrate in series [11]: CCC(=O)SCCNC(=O)CCNC(=O)[C@H](O)C(C)(C)COP(=O)(O)OP(=O)(O)OC[C@H]1O[C@@H](n2cnc3c(N)ncnc32)[C@H](O)[C@@H]1OP(=O)(O)O
As to the kind of experiment: purified protein. To be noted: 200 mM HEPES pH 7.5, 400 µM NADPH, 400 nM enzyme, 30 °C, apparent KM.

Series [12] concerns the molecule itself. Briefly: crystal structure; X-ray structures of CkSucD without ligands (8CEI), with NADPH (8CEK) and with mesaconyl-C1-CoA (8CEJ); sitting-drop vapor diffusion at 288 K.

Turning to CkSucD (Clostridium kluyveri DSM 555), in [1], the Km turned out to be 48.9 ± 10.8 µM and the turnover number (kcat) was 0.2 ± 0.01 s⁻¹.

With “CkSucD (Clostridium kluyveri DSM 555; K70R)”, in series [2], the Km is 86.1 ± 15.1 µM and the kcat is 0.1 ± 0.01 s⁻¹. Further, in series [3], the Km is 19.9 ± 2.3 µM and the kcat came to 0.9 ± 0.03 s⁻¹.

As for `NC(=O)C1=CN([C@@H]2O[C@H](COP(=O)(O)OP(=O)(O)OC[C@H]3O[C@@H](n4cnc5c(N)ncnc54)[C@H](OP(=O)(O)O)[C@@H]3O)[C@@H](O)[C@H]2O)C=CC1` [NADPH], the “X-ray crystal structure, 2.1 Å” value in series [4] (5 mM NADPH, pH 6.5 (abstract calls the ligand NADP+)) is on record as 8CEK (with NADPH).

As for `C/C(=C\C(=O)O)C(=O)SCCNC(=O)CCNC(=O)[C@H](O)C(C)(C)COP(=O)(O)OP(=O)(O)OC[C@H]1O[C@@H](n2cnc3c(N)ncnc32)[C@H](O)[C@@H]1OP(=O)(O)O` [mesaconyl-C1-CoA], the “X-ray crystal structure, 2.1 Å” value in series [4] (5 mM ligand, pH 7.5, active site, intact ligand in chain C, covalent mesaconyl-Cys242 in chains A, B, D) was “mesaconyl-C1 CoA bound state (pdb 8CEJ”.

B1: CdSucD (Clostridioides difficile R20291) (protein)
chain: MEKAVENFEDLSKEYINGYIERARKAQREFECYTQEQVDKIVKIVGKVVYYNAEYLAKLAVEETGMGVYEDKVAKNKSKAKVIYNNLKDKKSVGIIDIDRETGITKVAKPVGVVAAITPCTNPIVTPMSNAMFALKGRNAIIITPHHKAIGCSTKTVEMINEELEKIGAPENLIQILDQQSRENTRNLISSADVVIATGGMGMVKAAYSSGKPALGVGAGNVQCIIDRDVDIKEAVPKIIAGRIFDNGIICSGEQSVIVAEEMFDKIMDEFKNNKGFIVRDKVQKEAFRNAMFVNKSMNKDAVGQSVHTIAKIAGVEIPEDTKIIVIEADGPGEEDIIAKEKMCPVISAYKYKSFEEGVAIAKANLNVEGKGHSVSIHSNTVKNIEYAGENIEVSRFVINQCCATSAGGSFFNGLAPTNTLGCGSWGNNSISENLDYKHLINISRIAYYMPENEVPTDEELWG
notes: His-tagged, expressed in E. coli BL21(DE3), HisTrap purified
Consider B1, for which the Km in series [5] was determined as 38.3 ± 14.9 µM; in series [6] it was 213.8 ± 49.4 µM. The catalytic constant (kcat) was determined as 0.65 ± 0.08 s⁻¹ in [5] and 28.7 ± 4.1 s⁻¹ in [6].

B2: Succinyl-CoA reductase (SucD) from Clostridium kluyveri (enzyme)
chain: MSNEVSIKELIEKAKVAQKKLEAYSQEQVDVLVKALGKVVYDNAEMFAKEAVEETEMGVYEDKVAKCHLKSGAIWNHIKDKKTVGIIKEEPERALVYVAKPKGVVAATTPITNPVVTPMCNAMAAIKGRNTIIVAPHPKAKKVSAHTVELMNAELKKLGAPENIIQIVEAPSREAAKELMESADVVIATGGAGRVKAAYSSGRPAYGVGPGNSQVIVDKGYDYNKAAQDIITGRKYDNGIICSSEQSVIAPAEDYDKVIAAFVENGAFYVEDEETVEKFRSTLFKDGKINSKIIGKSVQIIADLAGVKVPEGTKVIVLKGKGAGEKDVLCKEKMCPVLVALKYDTFEEAVEIAMANYMYEGAGHTAGIHSDNDENIRYAGTVLPISRLVVNQPATTAGGSFNNGFNPTTTLGCGSWGRNSISENLTYEHLINVSRIGYFNKEAKVPSYEEIWG
notes: Succinyl-CoA reductase (SucD) of Clostridium kluyveri, UniProt P38947; In PDB 8CEJ Cys242 carries a mesaconyl-cysteine intermediate in subunits A, B and D; also called CkSucD; source: E. coli BL21 DE3, purified (HisTrap FF, desalting, size exclusion chromatography on Superdex 200)
With B2, the Km in [7] is on record as 28.5 ± 4.7 µM; in series [8] it was 25.7 ± 6.8 µM; in series [9] it was 332.6 ± 54.8 µM; in series [10] it was 22.6 ± 4.9 µM; in series [11], 145.2 ± 144 µM. For the same molecule, the kcat in series [7] worked out at 1.6 ± 0.07 s⁻¹; in [8], 0.2 ± 0.02 s⁻¹; in series [9], 0.3 ± 0.03 s⁻¹; in series [10], 7.8 ± 0.43 s⁻¹; in [11] it was 0.1 ± 0.04 s⁻¹. In addition, in series [12], the “stoichiometry N” value came to 2.
